The target of the data set is T1, Dhr1 isolated C-terminal domain (CTD) (Saccharomyces cerevisiae, UniProt Q04217 1176-1267).
T1 sequence: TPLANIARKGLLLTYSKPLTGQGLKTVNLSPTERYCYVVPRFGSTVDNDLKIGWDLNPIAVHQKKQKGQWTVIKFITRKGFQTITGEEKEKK
Put plainly: not stated.

Turning to AAAAAAAAAAAAAAA (ssRNA) [poly(A)15], the binding result is given as “no binding”.
The same measure for UUUUUUUUUUUUUUU (ssRNA) [poly(U)15]: “no binding”.

The record behind these values is paper PMC6698733.
